# Results as given in patent publication US20170188835.
# B1: Tobacco Etch Virus (TEV) protease (protein)
# chain: GESLFKGPRDYNPISSTICHLTNESDGHTTSLYGIGFGPFIITNKHLFRRNNGTLLVQSLHGVFKVKNTTTLQQHLIDGRDMIIIRMPKDFPPFPQKLKFREPQREERICLVTTNFQTKSMSSMVSDTSCTFPSSDGIFWKHWIQTKDGQCGSPLVSTRDGFIVGIHSASNFTNTNNYFTSVPKNFMELLTNQEAQQWVSGWRLNADSVLWGGHKVFMSKPEEPFQPVKEATQLMNELVYSQ
# Target: iTEV(+) 3.0, infrared fluorescent Tobacco Etch Virus (TEV) protease sensor
protein,measurement,value
B1,gel electrophoresis with Coomassie blue staining (cleavage of the sensor),Two bands revealed by Coomassie blue staining correspond to N and C half of the sensor with the expected molecular weight
